Data set [1] addresses HisMBP-MeCP2 205-257 (DIR);histone octamer (Homo sapiens;, UniProt P51608;P0C0S8;P62807;P68431;P62805 205-257;2-130;2-126;2-136;2-103, |H2B T115C;H3.1 C96S;C110A). Briefly: EMSA; 20 mM HEPES pH 7.5, 75 mM NaCl, 125 mM KCl, 50 uM EDTA, 2.5 mM beta-mercaptoethanol, 5% glycerol, BSA, 1.58 uM 47 bp competitor DNA (nucleosome assays); absent w.
The target of data set [2] is MeCP2 full-length, e2 isoform;histone octamer (Homo sapiens;, UniProt P51608;P0C0S8;P62807;P68431;P62805 1-486;2-130;2-126;2-136;2-103, |H2B T115C;H3.1 C96S;C110A). The data set is described as above.
The target of data set [3] is HisMBP-MeCP2 162-309;histone octamer (Homo sapiens;, UniProt P51608;P0C0S8;P62807;P68431;P62805 162-309;2-130;2-126;2-136;2-103, |H2B T115C;H3.1 C96S;C110A). Described as above.
Data set [4] concerns the target MeCP2 AT-DIRmut;histone octamer (Homo sapiens;, UniProt P51608;P0C0S8;P62807;P68431;P62805 1-486;2-130;2-126;2-136;2-103, R188G;R190G;K254N;K256N;R268Q|H2B T115C;H3.1 C96S;C110A). The data set is described as above.
Data set [5] concerns the target MeCP2 R133G;histone octamer (Homo sapiens;, UniProt P51608;P0C0S8;P62807;P68431;P62805 1-486;2-130;2-126;2-136;2-103, R133G|H2B T115C;H3.1 C96S;C110A). The data set is described as above.
The target in data set [6] is MeCP2 MBD;histone octamer (Homo sapiens;, UniProt P51608;P0C0S8;P62807;P68431;P62805 77-167;2-130;2-126;2-136;2-103, |H2B T115C;H3.1 C96S;C110A). Described as above.
For data set [7], the target named is HisMBP-MeCP2 205-257 (DIR) (Homo sapiens, UniProt P51608 205-257). Briefly: EMSA; 20 mM HEPES pH 7.5, 75 mM NaCl, 125 mM KCl, 50 uM EDTA, 2.5 mM beta-mercaptoethanol, 5% glycerol, BSA, 1.58 uM 47 bp competitor DNA (nucleosome assays; absent with free DNA), room temperature 30 min. The note with it: protein: recombinant; tags: His-MBP; label: 5' 6-FAM; blunt. Background: In EMSA bound probe runs differently from free probe, usually more slowly.

For data set [8], the target named is HisMBP-MeCP2 162-309;histone octamer, acidic patch mutant (Homo sapiens;Homo sapiens, UniProt P51608;P0C0S8;P62807;P68431;P62805 162-309;2-130;2-126;2-136;2-103, |H2A E61A;E91A;E92A;H2B E113A;H3.1 C96S;C110A). Briefly: EMSA; acidic patch mutant histone octamer; 20 mM HEPES pH 7.5, 75 mM NaCl, 125 mM KCl, 50 uM EDTA, 2.5 mM beta-mercaptoethanol, 5% glycerol, BSA, 1.58 uM 47 bp competitor DNA (nucleosome assays); absent w.

Data set [9] addresses MeCP2 full-length, e2 isoform;histone H1.0;histone octamer (Homo sapiens;Homo sapiens;, UniProt P51608;P07305;P0C0S8;P62807;P68431;P62805 1-486;1-194;2-130;2-126;2-136;2-103, ||H2B T115C;H3.1 C96S;C110A). In words: EMSA; histone H1.0 pre-bound (chromatosome); 20 mM HEPES pH 7.5, 75 mM NaCl, 125 mM KCl, 50 uM EDTA, 2.5 mM beta-mercaptoethanol, 5% glycerol, BSA, 1.58 uM 47 bp competitor DNA (nucleosome assays); absent w.

In data set [10] the target is HisMBP-MeCP2 162-309;histone octamer (Homo sapiens;Homo sapiens, UniProt P51608;P0C0S8;P62807;P68431;P62805 162-309;2-130;2-126;2-136;2-103, |H3.1 C96S;C110A). Briefly: EMSA; 20 mM HEPES pH 7.5, 75 mM NaCl, 125 mM KCl, 50 uM EDTA, 2.5 mM beta-mercaptoethanol, 5% glycerol, BSA, 1.58 uM 47 bp competitor DNA (nucleosome assays); absent w.
The target in data set [11] is MeCP2 full-length, e2 isoform;histone octamer, tailless H3 (Homo sapiens;Homo sapiens, UniProt P51608;P0C0S8;P62807;P68431;P62805 1-486;2-130;2-126;26-136;2-103, |H3.1 del1-24;A25C;C96S;C110A). Briefly: EMSA; H3-tailless histone octamer; 20 mM HEPES pH 7.5, 75 mM NaCl, 125 mM KCl, 50 uM EDTA, 2.5 mM beta-mercaptoethanol, 5% glycerol, BSA, 1.58 uM 47 bp competitor DNA (nucleosome assays); absent w.

These results are taken from PMC13276077.

B1: 16-N603-30 nucleosome unmethylated (nucleosome)
DNA 1: GAGCCACAAAATCACCGACGCTCACGGGTGCCCAGTTCGCGCGCCCACCTACCGTGTGAAGTCGTCACTCGGGCTTCTAAGTACGCTTAGCGCACGGTAGAGCGCAATCCAAGGCTAACCACCGTGCATCGATGTTGAAAGAGGCCCTCCGTCCTTATTACTTCAAGTCCCTGGGGTACCCGTTTCACTGCCA
DNA 2: TGGCAGTGAAACGGGTACCCCAGGGACTTGAAGTAATAAGGACGGAGGGCCTCTTTCAACATCGATGCACGGTGGTTAGCCTTGGATTGCGCTCTACCGTGCGCTAAGCGTACTTAGAAGCCCGAGTGACGACTTCACACGGTAGGTGGGCGCGCGAACTGGGCACCCGTGAGCGTCGGTGATTTTGTGGCTC
Turning to B1, the Kd in data set [1] was 298 nM; in data set [2], 94.9 nM; in data set [3] it was 94.6 nM; in data set [4], 41.5 nM; in data set [5] it was 188 nM; in data set [6], 716 nM.

B2: 20 bp dsDNA (dsDNA)
DNA 1: AATACGCGGCCGCCCTGGAG
DNA 2: CTCCAGGGCGGCCGCGTATT
For the molecule B2, the equilibrium dissociation constant (Kd) in data set [7] stood at 814 ± 50.1 nM.

B3: 15-N601-15 nucleosome unmethylated (nucleosome)
DNA 1: ATGGAACACATTGCACAGGATGTATATATCTGACACGTGCCTGGAGACTAGGGAGTAATCCCCTTGGCGGTTAAAACGCGGGGGACAGCGCGTACGTGCGTTTAAGCGGTGCTAGAGCTGTCTACGACCAATTGAGCGGCCTCGGCACCGGGATTCTCCAGGGCGGCCGCGTATT
DNA 2: AATACGCGGCCGCCCTGGAGAATCCCGGTGCCGAGGCCGCTCAATTGGTCGTAGACAGCTCTAGCACCGCTTAAACGCACGTACGCGCTGTCCCCCGCGTTTTAACCGCCAAGGGGATTACTCCCTAGTCTCCAGGCACGTGTCAGATATATACATCCTGTGCAATGTGTTCCAT
On to B3, for which the Kd in [8] stood at 217 nM; in data set [1] it was 581 nM; in [2], 220 nM; in data set [3] it was 240 nM; in data set [4], 85.2 nM; in data set [5], 596 nM. This molecule yielded a Kd in data set [6] of 1000 nM. The binding result in data set [9] was “no binding”.

B4: 15-N601-15 nucleosome -61 meCpG (nucleosome)
DNA 1: ATGGAACACATTGCACAGGATGTATATATCTGACACGTGCCTGGAGACTAGGGAGTAATCCCCTTGGCGGTTAAAACGCGGGGGACAGCGCGTACGTGCGTTTAAGCGGTGCTAGAGCTGTCTACGACCAATTGAGCGGCCTCGGCACCGGGATTCTCCAGGGCGGCCGCGTATT
DNA 2: AATACGCGGCCGCCCTGGAGAATCCCGGTGCCGAGGCCGCTCAATTGGTCGTAGACAGCTCTAGCACCGCTTAAACGCACGTACGCGCTGTCCCCCGCGTTTTAACCGCCAAGGGGATTACTCCCTAGTCTCCAGGCACGTGTCAGATATATACATCCTGTGCAATGTGTTCCAT
modifications: meCpG at -61 (GGCACCGGGATT)
Turning to B4, the binding result in data set [9] is “no binding”. In addition, the dissociation constant (Kd) came to 137 nM in [2], 78.6 nM in data set [4], 534 nM in [5] and 809 nM in data set [6].

B5: N601 nucleosome core particle unmethylated (nucleosome)
DNA 1: CAGGATGTATATATCTGACACGTGCCTGGAGACTAGGGAGTAATCCCCTTGGCGGTTAAAACGCGGGGGACAGCGCGTACGTGCGTTTAAGCGGTGCTAGAGCTGTCTACGACCAATTGAGCGGCCTCGGCACCGGGATTCTCCA
DNA 2: TGGAGAATCCCGGTGCCGAGGCCGCTCAATTGGTCGTAGACAGCTCTAGCACCGCTTAAACGCACGTACGCGCTGTCCCCCGCGTTTTAACCGCCAAGGGGATTACTCCCTAGTCTCCAGGCACGTGTCAGATATATACATCCTG
B5: the Kd in [8] is 1830 nM; in data set [1] it was 1970 nM; in [10] it was 786 nM; in data set [3], 734 nM. Moreover, the binding result in data set [2] is reported as “no binding”.

B6: N603-30 nucleosome 91 meCpA (nucleosome)
DNA 1: GAGCCACAAAATCACCGACGCTCACGGGTGCCCAGTTCGCGCGCCCACCTACCGTGTGAAGTCGTCACTCGGGCTTCTAAGTACGCTTAGCGCACGGTAGAGCGCAATCCAAGGCTAACCACCGTGCATCGATGTTGAAAGAGGCCCTCCGTCCTTATTACTTCAAGTCCCTGGGGT
DNA 2: ACCCCAGGGACTTGAAGTAATAAGGACGGAGGGCCTCTTTCAACATCGATGCACGGTGGTTAGCCTTGGATTGCGCTCTACCGTGCGCTAAGCGTACTTAGAAGCCCGAGTGACGACTTCACACGGTAGGTGGGCGCGCGAACTGGGCACCCGTGAGCGTCGGTGATTTTGTGGCTC
modifications: asymmetric meCpA at 91
As to B6, the dissociation constant Kd in [11] worked out at 47 nM; in data set [2], 61.4 nM.

B7: N603-30 nucleosome (single 30 bp linker) (nucleosome)
DNA 1: GAGCCACAAAATCACCGACGCTCACGGGTGCCCAGTTCGCGCGCCCACCTACCGTGTGAAGTCGTCACTCGGGCTTCTAAGTACGCTTAGCGCACGGTAGAGCGCAATCCAAGGCTAACCACCGTGCATCGATGTTGAAAGAGGCCCTCCGTCCTTATTACTTCAAGTCCCTGGGGT
DNA 2: ACCCCAGGGACTTGAAGTAATAAGGACGGAGGGCCTCTTTCAACATCGATGCACGGTGGTTAGCCTTGGATTGCGCTCTACCGTGCGCTAAGCGTACTTAGAAGCCCGAGTGACGACTTCACACGGTAGGTGGGCGCGCGAACTGGGCACCCGTGAGCGTCGGTGATTTTGTGGCTC
Consider B7, for which the figures for the Kd in data set [11] and in [2] were 86.9 nM and 102 nM, respectively.

By Kd is commonly meant the constant that tells how readily two partners part at equilibrium.
